Consider one substance from paper PMC10889005.

For this assay, the target named is KPNA4 (UniProt O00629). In words: pull-down/IP from co-transfected cells. To be noted: reference: IRF3 wild type; sites S97.

Take IRF3 (from UniProt Q14653) IRF3 S97A: the “binding against the reference” value was “stronger”.
